The text below walks through data of US20030059461A1 (SIBTECH, published 2003).

Broadly, the Kd is the equilibrium constant for the complex coming apart. A higher Kd goes with weaker binding.

One test concerns the target T1, soluble KDR-Fc receptor (human, UniProt P35968 20-764, limits assumed).
T1 construct: extracellular domain; also called soluble, secreted extracellular domain of the KDR/flk-1 receptor fused to the Fc portion of human IgG; not shown: Fc portion of human IgG
In words: competition with 125I-VEGF165 for soluble KDR-Fc.

Test [1] addresses T2, KDR/flk-1 receptor on 293/KDR or PAE/KDR cells (UniProt P35968 20-1356, limits assumed).
T2 construct: whole, on cells; also called cellular KDR/flk-1 receptors
The test is described as described in Example 1.G.2 (binding to KDR/flk-1).

Test [2] has as its target T2, KDR/flk-1 receptor on 293/KDR or …. Briefly: Scatchard analysis of 125I-labelled protein binding to 293/KDR cells.
The target is the same in test [3]. Briefly: Scatchard analysis on 293/KDR cells.

T2 sequence (P35968 20-1356 limits assumed): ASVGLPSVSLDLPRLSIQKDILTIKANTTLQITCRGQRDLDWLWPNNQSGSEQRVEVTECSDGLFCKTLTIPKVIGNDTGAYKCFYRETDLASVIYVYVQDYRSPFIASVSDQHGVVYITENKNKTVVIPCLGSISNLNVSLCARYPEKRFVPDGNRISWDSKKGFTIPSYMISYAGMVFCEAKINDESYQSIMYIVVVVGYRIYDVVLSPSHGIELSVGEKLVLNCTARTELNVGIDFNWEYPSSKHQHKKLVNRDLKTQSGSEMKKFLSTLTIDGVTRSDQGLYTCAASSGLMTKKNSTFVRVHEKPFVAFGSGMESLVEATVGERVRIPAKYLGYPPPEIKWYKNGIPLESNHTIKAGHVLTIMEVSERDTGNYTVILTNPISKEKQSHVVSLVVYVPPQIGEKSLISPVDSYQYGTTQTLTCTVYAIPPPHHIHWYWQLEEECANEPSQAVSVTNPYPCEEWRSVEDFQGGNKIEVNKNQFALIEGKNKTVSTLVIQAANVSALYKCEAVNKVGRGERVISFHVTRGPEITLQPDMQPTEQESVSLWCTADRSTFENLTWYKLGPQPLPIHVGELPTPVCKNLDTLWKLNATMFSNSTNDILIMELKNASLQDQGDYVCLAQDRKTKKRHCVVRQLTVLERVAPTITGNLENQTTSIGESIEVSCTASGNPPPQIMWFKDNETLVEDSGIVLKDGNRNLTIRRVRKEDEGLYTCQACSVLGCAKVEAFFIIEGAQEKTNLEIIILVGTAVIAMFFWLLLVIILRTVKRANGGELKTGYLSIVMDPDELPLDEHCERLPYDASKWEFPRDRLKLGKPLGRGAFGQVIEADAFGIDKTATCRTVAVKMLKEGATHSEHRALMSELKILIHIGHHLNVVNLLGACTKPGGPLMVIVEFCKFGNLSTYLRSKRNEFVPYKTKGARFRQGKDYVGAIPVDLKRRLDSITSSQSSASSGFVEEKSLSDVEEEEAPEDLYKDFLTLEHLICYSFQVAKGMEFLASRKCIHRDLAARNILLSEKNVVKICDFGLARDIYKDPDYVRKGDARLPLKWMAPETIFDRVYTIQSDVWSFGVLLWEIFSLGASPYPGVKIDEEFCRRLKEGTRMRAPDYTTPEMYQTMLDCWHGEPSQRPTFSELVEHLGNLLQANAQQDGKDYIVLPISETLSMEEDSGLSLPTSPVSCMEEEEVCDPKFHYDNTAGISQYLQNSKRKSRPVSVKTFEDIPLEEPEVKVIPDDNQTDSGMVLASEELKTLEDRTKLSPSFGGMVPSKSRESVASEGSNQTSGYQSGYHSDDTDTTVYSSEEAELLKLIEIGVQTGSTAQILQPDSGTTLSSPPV
T1 sequence (P35968 20-764 limits assumed): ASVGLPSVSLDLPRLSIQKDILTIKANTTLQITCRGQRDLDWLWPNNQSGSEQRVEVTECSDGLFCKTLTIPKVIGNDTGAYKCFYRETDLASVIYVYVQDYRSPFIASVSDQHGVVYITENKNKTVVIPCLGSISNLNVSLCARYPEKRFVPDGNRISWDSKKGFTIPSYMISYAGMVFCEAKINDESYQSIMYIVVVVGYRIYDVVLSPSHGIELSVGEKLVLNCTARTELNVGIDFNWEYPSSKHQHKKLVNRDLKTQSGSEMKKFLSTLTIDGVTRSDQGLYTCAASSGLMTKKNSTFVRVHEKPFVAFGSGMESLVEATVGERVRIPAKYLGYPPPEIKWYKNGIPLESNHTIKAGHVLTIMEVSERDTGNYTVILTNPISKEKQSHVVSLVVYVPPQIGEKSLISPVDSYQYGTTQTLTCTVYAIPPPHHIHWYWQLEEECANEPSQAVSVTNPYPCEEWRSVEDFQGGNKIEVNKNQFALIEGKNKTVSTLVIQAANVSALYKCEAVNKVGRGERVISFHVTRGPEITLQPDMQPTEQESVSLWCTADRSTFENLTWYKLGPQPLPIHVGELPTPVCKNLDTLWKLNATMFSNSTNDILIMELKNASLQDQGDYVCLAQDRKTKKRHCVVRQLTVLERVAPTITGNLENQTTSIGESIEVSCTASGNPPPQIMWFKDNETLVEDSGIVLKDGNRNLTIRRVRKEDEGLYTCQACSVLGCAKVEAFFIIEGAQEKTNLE
Description for soluble KDR-Fc receptor: One test for the functional activity of VEGF fusion proteins is binding to KDR/flk-1 receptors.

B1: txFVEGF189 fusion protein (ligand, human, UniProt P15692-2 27-215, looked up, not shown: large carriers)
chain: APMAEGGGQNHHEVVKFMDVYQRSYCHPIETLVDIFQEYPDEIEYIFKPSCVPLMRCGGCCNDEGLECVPTEESNITMQIMRIKPHQGQHIGEMSFLQHNKCECRPKKDRARQEKKSVRGKGKGQKRKRKKSRYKSWSVPCGPCSERRKHLFVQDPQTCKCSCKNTDSRCKARQLELNERTCRCDKPRR
notes: mature; also called txVEGF189
Consider B1, for which the binding result (with soluble KDR-Fc receptor; in test [1]) was “binds” each time.

B2: txFVEGF121 fusion protein (ligand, human, UniProt P15692-9 27-147, looked up, not shown: large carriers)
chain: APMAEGGGQNHHEVVKFMDVYQRSYCHPIETLVDIFQEYPDEIEYIFKPSCVPLMRCGGCCNDEGLECVPTEESNITMQIMRIKPHQGQHIGEMSFLQHNKCECRPKKDRARQEKCDKPRR
modifications: 125I label in the Scatchard experiment
notes: mature; also called txVEGF121
Molecule B2 registered a dissociation constant Kd in test [2] of 3.5 nM. In test [3], the “fold lower affinity than VEGF165” value was roughly 10 fold.
